Measured values reported in article PMC11883000, “Structure-function relationship of ASH1L and histone H3K36 and H3K4 methylation” (Nature Communications, 2025).
Ends that are not written are not given here. Me2 = dimethylation (dimethyl-lysine)

Assays:
[1] = target: T1, ASH1L tandem bromodomain-PHD finger (aa 2436-2638) (human, UniProt Q9NR48 2436-2638); assay: NMR solution structure; 0.5 mM ASH1L_(BD-PHD) with H3K4me2 peptide (aa 1-15); 298 K; 200 mM sodium phosphate pH 6.3, 5 mM DTT; details: both partners purified
T1 construct: ASH1L, human, bromodomain and PHD finger, aa 2436-2638 (NMR structure sample); 13C/15N-labelled and 75% deuterated; The protein expression section lists ASH1L_(BD-PHD) as aa 2430-2629 (GST fusion, E. coli); the NMR structure section gives aa 2436-2638; also called ASH1L_(BD-PHD)

[2] = target: T2, ASH1L plant homeodomain (PHD) finger, wild type (aa 2579-2629) (human, UniProt Q9NR48 2579-2629); assay: NMR titration; 1H,15N HSQC chemical shift perturbation; unlabelled ligand (histone peptide or ASH1LSET) added to 0.1-0.2 mM 15N-labelled protein; 298 K; 25 mM Tris pH 7.5, 150 mM NaCl, 5 mM DTT; details: both partners purified
T2 construct: ASH1L, human, PHD finger, aa 2579-2629; 15N-labelled for NMR; also called ASH1LPHD; ASH1L PHD; source: E. coli BL21 or Rosetta2 (DE3) pLysS, purified (glutathione agarose, SEC)

Binder | binding result [1] | Kd [2] [µM]
ARTK(Me2)QTARKSTGGKA (peptide, UniProt P68431 2-16, looked up, histone H3, residues 1-15) [histone H3K4me2 peptide (aa 1-15 of H3)] | binds | –
ARTKQTARKSTG (peptide, UniProt P68431 2-13, looked up, histone H3, residues 1-12) [histone H3K4me0 (unmodified) peptide (aa 1-12 of H3)] | – | 1900
ARTK(Me)QTARKSTG (peptide, UniProt P68431 2-13, looked up, histone H3, residues 1-12) [histone H3K4me1 peptide (aa 1-12 of H3)] | – | 119
